For two substances, Kd results are on record in PMC12000561.

As usually defined, the Kd is the equilibrium constant for the complex coming apart.

The data set concerns MUTYH WT (MBP fusion) (Homo sapiens). Briefly: EMSA. The conditions noted are these: EMSA: DNA mix 40 mM Tris pH 7.6, 2 mM EDTA, 200 mM NaCl (printed '200 M'), 20% glycerol, 0.2 mg/ml BSA, 2 mM DTT, 20 pM duplex, mixed 1:1 with enzyme in 20 mM ….

Regarding Duplex 2 THF:OG (product analog), 30 bp, under “upper limit estimate, THF (abasic analog) opposite 8-oxoguanine”, the Kd is < 10 pM.
Turning to “Duplex 2 fA:OG (substrate analog), 30 bp”, where the note is “table unit header missing, 2'-fluoro-2'-deoxyadenosine opposite 8-oxoguanine”, the Kd was 32 pM.
